From patent US20240343803A1 come the findings set out here.

The experiment concerns the target cynomolgus monkey PVRIG on FlpinCHO-cyno PVRIG cells (cynomolgus monkey). Nature of the experiment: FACS, FlpinCHO-cyno PVRIG cells. On the technique in general: In flow cytometry, cells or beads pass a laser one at a time.

cynomolgus monkey PVRIG on FlpinCHO-cyno PVRIG cells (cynomolgus monkey), sequence (chain, as listed by the source): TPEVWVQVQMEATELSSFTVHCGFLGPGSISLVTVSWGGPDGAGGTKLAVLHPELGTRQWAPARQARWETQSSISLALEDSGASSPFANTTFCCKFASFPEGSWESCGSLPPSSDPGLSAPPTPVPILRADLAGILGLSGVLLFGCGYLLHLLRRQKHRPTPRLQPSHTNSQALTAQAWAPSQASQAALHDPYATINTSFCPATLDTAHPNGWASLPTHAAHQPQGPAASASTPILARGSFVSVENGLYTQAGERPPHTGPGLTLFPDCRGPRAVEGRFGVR

B1: PVRIG-A105-H3a (Fc fusion, not shown: a dimerising Fc or GST)
chain: EVQLVESGGGLVQPGGSLRLSCAASGRTFDRHTMTWFRQAPGKEREFVATASRIPGDTYYVDSVKGRFTISRDNAKNSVYLQMNSLRAEDTAVYYCAATSAYSSEVDSYEKGSWYDNWGQGTMVTVSS
In the case of B1, the AUC % to COM701-hIgG1 was 3.27%, the AUC % to SRF813-hIgG1 was 4.05% and the AUC % to parental Ab was determined as 3.74%.
